For this data set, the target named is APP695 with C-terminal dilysine and the mutation KM-DA594-597 to SYEA594-597, expressed in HEK 293 derivative cells, P05067.

This note sets out measurements from patent US20040254341.

Sequence of APP695 with C-terminal dilysine and the mutation KM-DA594-597 to SYEA594-597, expressed in HEK 293 derivative cells, P05067 (P05067 whole entry, looked up, change not shown, tested part not stated): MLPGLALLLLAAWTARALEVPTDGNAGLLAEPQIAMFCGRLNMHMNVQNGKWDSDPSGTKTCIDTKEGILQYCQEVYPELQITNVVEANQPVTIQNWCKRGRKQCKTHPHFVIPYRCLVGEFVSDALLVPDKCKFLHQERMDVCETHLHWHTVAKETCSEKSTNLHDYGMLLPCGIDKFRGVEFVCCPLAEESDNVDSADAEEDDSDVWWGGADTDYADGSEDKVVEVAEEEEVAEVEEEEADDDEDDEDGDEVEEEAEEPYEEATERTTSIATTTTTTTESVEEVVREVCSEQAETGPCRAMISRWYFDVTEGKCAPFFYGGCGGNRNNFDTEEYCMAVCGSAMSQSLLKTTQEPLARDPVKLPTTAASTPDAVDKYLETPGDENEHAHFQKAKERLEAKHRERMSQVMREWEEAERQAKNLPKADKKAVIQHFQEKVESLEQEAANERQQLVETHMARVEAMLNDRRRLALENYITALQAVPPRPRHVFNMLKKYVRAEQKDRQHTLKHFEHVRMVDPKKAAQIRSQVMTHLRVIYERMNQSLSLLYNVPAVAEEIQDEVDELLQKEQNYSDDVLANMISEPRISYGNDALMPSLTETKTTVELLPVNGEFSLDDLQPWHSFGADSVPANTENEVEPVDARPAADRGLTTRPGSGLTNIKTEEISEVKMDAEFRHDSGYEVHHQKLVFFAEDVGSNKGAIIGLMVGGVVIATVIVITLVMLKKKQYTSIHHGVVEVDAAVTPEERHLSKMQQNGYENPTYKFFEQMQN

B1: Hu-Asp2 expressed in a stable HEK-293 derivative cell line that expresses higher levels of Hu-Asp2 (protein)
chain: ETDEEPEEPGRRGSFVEMVDNLRGKSGQGYYVEMTVGSPPQTLNILVDTGSSNFAVGAAPHPFLHRYYQRQLSSTYRDLRKGVYVPYTQGKWEGELGTDLVSIPHGPNVTVRANIAAITESDKFFINGSNWEGILGLAYAEIARPDDSLEPFFDSLVKQTHVPNLFSLHLCGAGFPLNQSEVLASVGGSMIIGGIDHSLYTGSLWYTPIRREWYYEVIIVRVEINGQDLKMDCKEYNYDKSIVDSGTTNLRLPKKVFEAAVKSIKAASSTEKFPDGFWLGEQLVCWQAGTTPWNIFPVISLYLMGEVTNQSFRITILPQQYLRPVEDVATSQDDCYKFAISQSSTGTVMGAVIMEGFYVVFDRARKRIGFAVSACHVHDEFRTAAVEGPFVTLDMEDCGYNIPQTDESTLMTIAYVMAAICALFMLPLCLMVCQWRCLRCLRQQHDDFADDISLLK
On to B1, for which the “β-secretase cleavage product CTF-99, Western blot with antibody C8” value is on record as “both mutant APP variants were proficiently cleaved by Asp2”.
